{"source": "paper PMC11291303", "key": {"[1]": {"molecular_target": "turnip mosaic virus (TuMV) isolate YC5 VPg D113G (turnip mosaic virus isolate YC5)", "assay": "two-hybrid"}, "[2]": {"molecular_target": "turnip mosaic virus (TuMV) isolate YC5 VPg R118H (turnip mosaic virus isolate YC5)", "assay": "two-hybrid"}}}
{"substance": "ROS1-ASSOCIATED HOMEODOMAIN PROTEIN 1 (RHD1) (natural protein)", "values": [{"measurement": "percent decrease in binding affinity compared to VPg^wt", "setting": "[1]", "value": 22.6, "unit": "%"}, {"measurement": "percent increase in binding affinity compared to VPg^wt", "setting": "[2]", "value": 17.4, "unit": "%"}]}
{"substance": "PYRUVATE ORTHOPHOSPHATE DIKINASE (PPDK) REGULATORY PROTEIN 1 (RP1) (natural protein)", "values": [{"measurement": "percent stronger binding than VPg^wt", "setting": "[2]", "value": 47.1, "unit": "%"}]}
{"substance": "FRUCTOKINASE-LIKE 1 (FLN1) protein (natural protein)", "values": [{"measurement": "percent weaker interaction than with VPg^wt", "setting": "[1]", "value": 36.5, "unit": "%"}, {"measurement": "percent weaker interaction than with VPg^wt", "setting": "[2]", "value": 36.5, "unit": "%"}]}
{"substance": "MITOCHONDRIAL GLYCOPROTEIN FAMILY PROTEIN (AT1G15870) (natural protein)", "values": [{"measurement": "percent stronger binding than VPg^wt", "setting": "[2]", "value": 36.2, "unit": "%"}]}
{"substance": "eukaryotic translation initiation factor (iso)4E (natural protein)", "values": [{"measurement": "percent weaker interaction than with VPg^wt", "setting": "[1]", "value": 90.5, "unit": "%"}, {"measurement": "percent weaker interaction than with VPg^wt", "setting": "[2]", "value": 90.5, "unit": "%"}]}
{"substance": "ARM-REPEAT SU… PROTEIN (AT5G62580) (natural protein)", "values": [{"measurement": "percent reduction in binding strength compared to VPg^wt", "setting": "[1]", "value": 28.8, "unit": "%"}]}
{"substance": "PROLINE RICH MITOTIC CHECKPOINT CONTROL FACTOR (PRCC) (natural protein)", "values": [{"measurement": "percent stronger binding than VPg^wt", "setting": "[2]", "value": 22.5, "unit": "%"}]}
{"substance": "MYOSIN 3 (MYOS3) protein (natural protein)", "values": [{"measurement": "percent stronger binding than VPg^wt", "setting": "[2]", "value": 27.5, "unit": "%"}]}
